Eight proteins from patent publication US20070077617 can be followed below.

Numbering of substitutions follows the chain as printed. Numbers in names are those of the source.

In data set [1] the target is fusion protein PRK.
The target in data set [2] is fusion protein PRQ.
Data set [3] deals with fusion protein PRR.
Data set [4] addresses fusion protein PRW.
For data set [5], the target named is fusion protein PRA.
Data set [6] has as its target fusion protein PRN.
For data set [7], the target named is fusion protein PRS.
Sequence of fusion protein PRS (chain, as listed by the source): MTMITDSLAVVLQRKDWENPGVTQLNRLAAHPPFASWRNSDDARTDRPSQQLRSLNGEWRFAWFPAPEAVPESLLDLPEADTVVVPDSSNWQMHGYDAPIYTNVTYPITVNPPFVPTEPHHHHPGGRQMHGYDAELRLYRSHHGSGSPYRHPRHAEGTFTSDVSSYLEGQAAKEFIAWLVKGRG
Data set [8] deals with fusion protein PRP.
Data set [9] addresses fusion protein PRY.
In data set [10] the target is fusion protein PRF.
Sequence of fusion protein PRF (chain, as listed by the source): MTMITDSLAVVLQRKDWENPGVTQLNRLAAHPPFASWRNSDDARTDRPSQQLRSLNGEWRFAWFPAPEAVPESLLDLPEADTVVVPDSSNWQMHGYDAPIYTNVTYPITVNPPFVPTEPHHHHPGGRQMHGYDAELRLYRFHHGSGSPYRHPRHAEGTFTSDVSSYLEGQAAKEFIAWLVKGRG
For data set [11], the target named is fusion protein PRI.
Sequence of fusion protein PRI (chain, as listed by the source): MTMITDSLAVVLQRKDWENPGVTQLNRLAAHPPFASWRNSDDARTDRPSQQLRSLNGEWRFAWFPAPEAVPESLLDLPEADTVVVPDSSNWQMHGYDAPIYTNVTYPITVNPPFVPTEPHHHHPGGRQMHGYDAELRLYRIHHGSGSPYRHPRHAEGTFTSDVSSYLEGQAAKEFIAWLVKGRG
Data set [12] concerns the target fusion protein PRL.
Data set [13] has as its target fusion protein PRG.
For data set [14], the target named is fusion protein PRC.
Sequence of fusion protein PRC (chain, as listed by the source): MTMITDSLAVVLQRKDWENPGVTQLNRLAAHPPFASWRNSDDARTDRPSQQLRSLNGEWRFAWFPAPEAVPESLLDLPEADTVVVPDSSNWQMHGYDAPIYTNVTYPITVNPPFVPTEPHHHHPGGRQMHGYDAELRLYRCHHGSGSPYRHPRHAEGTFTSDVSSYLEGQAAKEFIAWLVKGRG
The target of data set [15] is fusion protein PRM.
Sequence of fusion protein PRM (chain, as listed by the source): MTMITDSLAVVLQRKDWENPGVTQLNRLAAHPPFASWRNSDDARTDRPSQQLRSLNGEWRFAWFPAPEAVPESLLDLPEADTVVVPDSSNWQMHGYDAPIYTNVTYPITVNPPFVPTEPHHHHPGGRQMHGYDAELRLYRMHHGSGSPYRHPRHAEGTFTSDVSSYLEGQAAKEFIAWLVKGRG
The target in data set [16] is fusion protein PRH.
Sequence of fusion protein PRH (chain, as listed by the source): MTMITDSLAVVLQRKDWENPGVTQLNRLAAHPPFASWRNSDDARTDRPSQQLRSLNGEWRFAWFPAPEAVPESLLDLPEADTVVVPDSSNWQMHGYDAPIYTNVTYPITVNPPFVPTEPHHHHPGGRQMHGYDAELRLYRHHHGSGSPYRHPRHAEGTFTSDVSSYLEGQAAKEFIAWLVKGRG
The target in data set [17] is fusion protein PRE.
Sequence of fusion protein PRE (chain, as listed by the source): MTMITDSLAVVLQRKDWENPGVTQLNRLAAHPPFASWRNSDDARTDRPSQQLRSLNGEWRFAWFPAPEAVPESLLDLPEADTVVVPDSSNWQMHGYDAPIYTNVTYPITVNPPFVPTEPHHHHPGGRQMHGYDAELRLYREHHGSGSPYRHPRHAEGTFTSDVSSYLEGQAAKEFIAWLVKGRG
Data set [18] deals with fusion protein PRD.
Sequence of fusion protein PRD (chain, as listed by the source): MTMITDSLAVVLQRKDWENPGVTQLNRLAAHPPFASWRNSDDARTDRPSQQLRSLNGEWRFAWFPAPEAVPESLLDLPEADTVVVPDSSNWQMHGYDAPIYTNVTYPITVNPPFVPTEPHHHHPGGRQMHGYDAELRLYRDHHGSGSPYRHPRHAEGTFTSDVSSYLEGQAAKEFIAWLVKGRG
The target of data set [19] is fusion protein PRT.
Sequence of fusion protein PRT (chain, as listed by the source): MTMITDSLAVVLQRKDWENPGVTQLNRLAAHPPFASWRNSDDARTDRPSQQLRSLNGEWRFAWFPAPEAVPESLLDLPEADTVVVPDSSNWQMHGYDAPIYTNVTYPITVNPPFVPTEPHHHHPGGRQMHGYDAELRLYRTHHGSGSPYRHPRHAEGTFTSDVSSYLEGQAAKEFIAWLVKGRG

Sequence of fusion protein PRL (chain, as listed by the source): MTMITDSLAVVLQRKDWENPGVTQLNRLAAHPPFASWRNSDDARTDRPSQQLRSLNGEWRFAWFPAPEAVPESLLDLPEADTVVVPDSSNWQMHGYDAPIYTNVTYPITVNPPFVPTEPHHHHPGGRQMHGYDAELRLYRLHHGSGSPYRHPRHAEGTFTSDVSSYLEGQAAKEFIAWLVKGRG
Sequence of fusion protein PRG (chain, as listed by the source): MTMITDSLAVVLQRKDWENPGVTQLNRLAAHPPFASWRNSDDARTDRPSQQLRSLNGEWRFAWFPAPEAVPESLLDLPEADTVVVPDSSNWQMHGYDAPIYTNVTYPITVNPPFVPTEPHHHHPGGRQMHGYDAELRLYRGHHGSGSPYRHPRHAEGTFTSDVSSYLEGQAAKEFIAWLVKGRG
Sequence of fusion protein PRN (chain, as listed by the source): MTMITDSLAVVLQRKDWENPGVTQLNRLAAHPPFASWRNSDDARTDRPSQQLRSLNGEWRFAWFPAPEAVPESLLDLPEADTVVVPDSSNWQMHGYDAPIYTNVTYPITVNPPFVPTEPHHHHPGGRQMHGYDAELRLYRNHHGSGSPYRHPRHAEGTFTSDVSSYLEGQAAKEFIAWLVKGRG
Sequence of fusion protein PRY (chain, as listed by the source): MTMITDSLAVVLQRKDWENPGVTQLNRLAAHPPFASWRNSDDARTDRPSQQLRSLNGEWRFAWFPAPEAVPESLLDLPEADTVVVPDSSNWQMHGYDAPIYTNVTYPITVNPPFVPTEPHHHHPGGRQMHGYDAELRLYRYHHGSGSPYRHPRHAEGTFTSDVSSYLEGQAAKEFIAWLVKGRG
Sequence of fusion protein PRR (chain, as listed by the source): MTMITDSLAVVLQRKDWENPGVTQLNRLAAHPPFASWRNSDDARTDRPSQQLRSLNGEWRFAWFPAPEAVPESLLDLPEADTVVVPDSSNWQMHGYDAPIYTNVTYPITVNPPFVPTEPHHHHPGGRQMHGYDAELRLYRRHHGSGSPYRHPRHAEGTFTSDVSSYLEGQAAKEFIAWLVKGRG
Sequence of fusion protein PRQ (chain, as listed by the source): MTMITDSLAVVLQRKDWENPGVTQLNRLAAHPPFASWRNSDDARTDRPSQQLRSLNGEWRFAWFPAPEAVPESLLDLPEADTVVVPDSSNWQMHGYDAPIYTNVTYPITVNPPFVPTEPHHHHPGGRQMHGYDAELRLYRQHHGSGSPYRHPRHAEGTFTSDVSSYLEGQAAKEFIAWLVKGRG
Sequence of fusion protein PRK (chain, as listed by the source): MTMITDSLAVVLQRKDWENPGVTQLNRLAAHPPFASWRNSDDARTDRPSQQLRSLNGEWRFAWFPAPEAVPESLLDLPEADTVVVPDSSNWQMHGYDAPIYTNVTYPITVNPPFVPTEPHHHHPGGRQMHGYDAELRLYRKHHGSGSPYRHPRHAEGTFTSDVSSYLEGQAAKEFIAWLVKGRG
Sequence of fusion protein PRW (chain, as listed by the source): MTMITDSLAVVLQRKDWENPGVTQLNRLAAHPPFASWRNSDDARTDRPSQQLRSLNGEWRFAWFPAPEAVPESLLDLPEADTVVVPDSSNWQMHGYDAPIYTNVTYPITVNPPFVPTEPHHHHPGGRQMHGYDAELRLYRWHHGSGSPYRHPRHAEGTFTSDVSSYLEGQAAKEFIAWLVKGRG
Sequence of fusion protein PRA (chain, as listed by the source): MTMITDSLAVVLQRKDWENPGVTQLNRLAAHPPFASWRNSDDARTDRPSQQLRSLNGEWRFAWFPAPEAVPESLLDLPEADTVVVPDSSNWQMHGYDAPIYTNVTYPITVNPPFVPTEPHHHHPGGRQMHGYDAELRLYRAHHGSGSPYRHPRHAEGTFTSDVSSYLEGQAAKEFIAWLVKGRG

B1: OmpT protease variant OmpT D97F (protein)
chain: STETLSFTPDNINADISLGTLSGKTKERVYLAEEGGRKVSQLDWKFNNAAIIKGAINWDLMPQISIGAAGWTTLGSRGGNMVDQDWMDSSNPGTWTFESRHPDTQLNYANEFDLNIKGWLLNEPNYRLGLMAGYQESRYSFTARGGSYIYSSEEGFRDDIGSFPNGERAIGYKQRFKMPYIGLTGSYRYEDFELGGTFKYSGWVESSDNDEHYDPGKRITYRSKVKDQNYYSVAVNAGYYVTPNAKVYVEGAWNRVTNKKGNTSLYDHNNNTSDYSKNGAGIENYNFITTAGLKYTF
Turning to B1, the relative cleavage efficiency was below 3% in [1]; “less than 3%” in data set [2]; below 3% in data set [3]; “less than 3%” in data set [4]; 3.1% in data set [5]; below 3% in data set [6]. Moreover, the relative cleavage efficiency in data set [7] was below 3%; in data set [8], “less than 3%”; in [9], below 3%; in data set [10], below 3%; in data set [11], below 3%; in [12], “less than 3%”. Also, the relative cleavage efficiency result in data set [13] was “less than 3%”; in [14], below 3%; in [15], below 3%; in data set [16], “less than 3%”; in data set [17], “less than 3%”; in [18] it was “less than 3%”. The relative cleavage efficiency in [19] was below 3%.

B2: OmpT protease variant OmpT D97N (protein)
chain: B1 chain with F97N
For the protein B2, the relative cleavage efficiency in data set [1] is below 3%; in data set [2], “less than 3%”; in [3], below 3%; in data set [4], “less than 3%”; in [5], 3.8%; in data set [6], below 3%. Also, the relative cleavage efficiency in data set [7] was 4.1%; in data set [8] it was “less than 3%”; in data set [9], below 3%; in data set [10], below 3%; in [11], below 3%; in data set [12], “less than 3%”. The relative cleavage efficiency result in [13] was “less than 3%”; in data set [14] it was below 3%; in [15], below 3%; in data set [16], “less than 3%”; in data set [17], “less than 3%”; in [18], “less than 3%”. This protein displayed a relative cleavage efficiency in [19] below 3%.

B3: OmpT protease variant OmpT D97A (protein)
chain: B1 chain with F97A
As for B3, the relative cleavage efficiency in data set [1] was below 3%; in data set [2] it was “less than 3%”; in [3] it was below 3%; in data set [4], “less than 3%”; in data set [5], 3.8%; in data set [6], below 3%. The relative cleavage efficiency is below 3% in [7]; “less than 3%” in data set [8]; below 3% in data set [9]; below 3% in data set [10]; below 3% in data set [11]; “less than 3%” in data set [12]. The relative cleavage efficiency result in data set [13] was “less than 3%”; in data set [14], below 3%; in [15], below 3%; in data set [16], “less than 3%”; in data set [17], “less than 3%”; in data set [18] it was “less than 3%”. The relative cleavage efficiency in [19] is below 3%.

B4: OmpT protease variant OmpT D97T (protein)
chain: B1 chain with F97T
For the protein B4, the relative cleavage efficiency was below 3% in [1]; “less than 3%” in data set [2]; below 3% in data set [3]; “less than 3%” in [4]; 6.8% in data set [5]; below 3% in [6]. The relative cleavage efficiency was 7.4% in data set [7]; “less than 3%” in data set [8]; below 3% in data set [9]; 3.7% in data set [10]; below 3% in data set [11]; “less than 3%” in [12]. In addition, the relative cleavage efficiency result in data set [13] was “less than 3%”; in data set [14], 4.6%; in data set [15] it was below 3%; in [16], “less than 3%”; in [17], “less than 3%”; in data set [18], “less than 3%”. Also, in data set [19], the relative cleavage efficiency was below 3%.

B5: OmpT protease variant OmpT D97E (protein)
chain: B1 chain with F97E
With B5, the relative cleavage efficiency was 39% in [1]; “less than 3%” in data set [2]; 49% in data set [3]; “less than 3%” in data set [4]; 6.5% in data set [5]; below 3% in data set [6]. Also, the relative cleavage efficiency is 7.2% in data set [7]; “less than 3%” in data set [8]; below 3% in data set [9]; 3.4% in data set [10]; below 3% in [11]; “less than 3%” in data set [12]. In addition, the relative cleavage efficiency result in [13] is “less than 3%”; in data set [14] it was 6.9%; in data set [15], below 3%; in data set [16], “less than 3%”; in [17], “less than 3%”; in [18], “less than 3%”. The protein also yielded a relative cleavage efficiency in [19] below 3%.

B6: OmpT protease variant OmpT D97S (protein)
chain: B1 chain with F97S
Turning to B6, the relative cleavage efficiency in data set [1] was below 3%; in data set [2], “less than 3%”; in [3] it was below 3%; in [4], “less than 3%”; in data set [5], 4%; in [6], below 3%. In addition, the relative cleavage efficiency in [7] is below 3%; in [8], “less than 3%”; in data set [9] it was below 3%; in data set [10], below 3%; in data set [11], below 3%; in data set [12], “less than 3%”. The relative cleavage efficiency entry in data set [13] was “less than 3%”; in data set [14], 3.1%; in [15], below 3%; in data set [16], “less than 3%”; in [17], “less than 3%”; in [18], “less than 3%”. Besides, the relative cleavage efficiency in data set [19] is below 3%.

B7: OmpT protease variant OmpT D97Q (protein)
chain: B1 chain with F97Q
In the case of B7, the relative cleavage efficiency in data set [1] is below 3%; in data set [2], “less than 3%”; in data set [3], below 3%; in [4], “less than 3%”; in data set [5], 4%; in data set [6] it was below 3%. The relative cleavage efficiency in data set [7] was 4.4%; in data set [8], “less than 3%”; in [9], below 3%; in data set [10], below 3%; in [11], below 3%; in data set [12], “less than 3%”. For the same protein, the relative cleavage efficiency entry is “less than 3%” in [13]; 4.1% in [14]; below 3% in data set [15]; “less than 3%” in [16]; “less than 3%” in data set [17]; “less than 3%” in data set [18]. Further, the relative cleavage efficiency in data set [19] is below 3%.

B8: OmpT protease variant OmpT D97C (protein)
chain: B1 chain with F97C
Turning to B8, the relative cleavage efficiency is 3.9% in data set [1]; “less than 3%” in [2]; 4% in data set [3]; “less than 3%” in [4]; 6.2% in [5]; below 3% in data set [6]. Moreover, the relative cleavage efficiency in [7] is 5.6%; in data set [8], “less than 3%”; in data set [9], below 3%; in data set [10], 4.6%; in data set [11] it was below 3%; in data set [12], “less than 3%”. Also, the relative cleavage efficiency entry is “less than 3%” in data set [13]; 4.8% in data set [14]; below 3% in data set [15]; “less than 3%” in data set [16]; “less than 3%” in data set [17]; “less than 3%” in data set [18]. Also, in data set [19], the relative cleavage efficiency is below 3%.
